Experimental data taken from US20170088610A1 (RINAT NEUROSCIENCE, published 2017).
Changes are numbered by the printed parent chain. In names and notes the source's numbering stands. Read-outs that look alike come from different tables or passages of the source.

Assays:
[1] = biological target: T1, human nerve growth factor (human, UniProt P01138 122-241); test: BIAcore SPR, Fab over immobilised human NGF
T1 construct: Immobilised on CM5 chips for BIAcore, soluble in neuron survival assays; also called human NGF; hNGF
T1 sequence (P01138 122-241 limits assumed): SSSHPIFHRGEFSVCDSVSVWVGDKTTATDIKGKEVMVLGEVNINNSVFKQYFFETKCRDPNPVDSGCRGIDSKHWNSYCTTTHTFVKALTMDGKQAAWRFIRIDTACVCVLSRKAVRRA

[2] = biological target: T1, human nerve growth factor; test: cell-based or functional assay
rat nerve growth factor [3] = biological target: T2, rat nerve growth factor (rat, UniProt P25427 122-241); test: cell-based or functional assay
T2 sequence (P25427 122-241 limits assumed): as the sequence (P01138 122-241 limits assumed) above, with S3T, I6V, R9M, M37T, D60A, D65E, M92T, G94D, V117A, A120G counted along it

[4] = biological target: T1, human nerve growth factor; test: BIAcore SPR screen, Fab over immobilised human NGF
Method: (§1) A screening BIAcore assay was optimized to determine the affinity of Fab clones from libraries. Supernatants of small culture lysates were injected at […] for 2 min. Dissociation times of 10 to 15 minutes were used for determination of a single exponential dissociation rate (koff) using BIAevaluation software. […] Clones showing improved (slower) koff values were expressed at large scale and full kinetic parameters, kₒₙ and koff, were determined on purified protein.
(§2) For affinity screening experiments, each library was further paired with the corresponding CDR-grafted light or heavy chain (for example, the H1/H2 library was paired with CDR-grafted light chain), the antibody was expressed, and affinity to human NGF of the individual clones was screened using the BIACORE surface plasmon resonance (SPR) system (BIAcore, Inc. Piscataway, N.J.) according to the manufacturer's instructions and as described above. koff, kₒₙ and KD were determined. Antibody clones were ranked based on koff rates, since generally most variation in affinity is seen in koff rates, and further because koff rates are independent of antibody concentration.

[5] = biological target: T1, human nerve growth factor; test: BIAcore SPR screen, Fab over immobilised human NGF; remark: listed apart in the source
Method: as §1
(§3) 20-80 clones from each small library were screened using BIAcore analysis as described herein. Samples were simultaneously analyzed by BIAcore for binding affinity to NGF in one channel of the BIAcore chip and for presence of Fab by binding to a penta-histag antibody in another channel of the sensor chip, to detect the his tag at the C terminus of the heavy chain. Clones that expressed protein were classified as having the same affinity, worse affinity, better affinity or no binding, using koff to classify: The results of this analysis are shown in Table 5.

[6] = biological target: T1, human nerve growth factor; test: BIAcore SPR screen, Fab over immobilised human NGF; remark: listed apart in the source
Method: as §1

[7] = biological target: T1, human nerve growth factor; test: BIAcore SPR screen, Fab over immobilised human NGF; KD calculated from koff with kon 4e4 M-1s-1
Method: as §1, §2

[8] = biological target: T1, human nerve growth factor; test: as above; remark: listed apart in the source
Method: as §1, §3

[9] = biological target: T1, human nerve growth factor; test: as above; remark: listed apart in the source
Method: as §1

rat nerve growth factor [10] = biological target: T2, rat nerve growth factor; test: cell-based or functional assay; remark: listed apart in the source
[11] = biological target: T1, human nerve growth factor; test: cell-based or functional assay; remark: listed apart in the source
[12] = biological target: T1, human nerve growth factor; test: BIAcore SPR, Fabs over immobilised human NGF
Method: (§4) Affinities of anti-NGF Fabs and monoclonal antibodies were determined using the BIAcore3000™ surface plasmon resonance (SPR) system (BIAcore, INC, Piscaway N.J.). CM5 chips were activated with N-ethyl-N′-(3-dimethylaminopropyl)-carbodiinide hydrochloride (EDC) and N-hydroxysuccinimide (NETS) according to the supplier's instructions. Human NGF was diluted into 10 mM sodium acetate pH 4.0 and injected over the activated chip at a concentration of 0.005 mg/mL. Using variable flow time across the individual chip channels, two ranges of antigen density were achieved: 100-200 response units (RU) for detailed kinetic studies and 500-600 RU for screening assays. The chip was blocked with ethanolamine. […] HBS-EP buffer (0.01M HEPES, pH 7.4, 0.15 NaCl, 3 mM EDTA, 0.005% Surfactant […]) was used as running buffer for all the BIAcore assays.
(§5) Briefly, several concentrations of antibodies (Fabs) were injected for 2 minutes onto a CM5 chip with 100 RU of immobilized human NGF on it, and permitted to dissociate for 1800 seconds. […] Data was analyzed using BIAevaluation software following the manufacturer's instructions.

[13] = biological target: T1, human nerve growth factor; test: BIAcore SPR, Fab over immobilised human NGF (100 RU)
Method: as §4, §5

[14] = biological target: T1, human nerve growth factor; test: BIAcore SPR, purified Fab over immobilised human NGF (100 RU); purified Fab E3, 100 RU NGF on chip
Method: as §4, §5

[15] = biological target: T1, human nerve growth factor; test: BIAcore SPR screen, Fab over immobilised human NGF; KD calculated from koff with kon 4e4 M-1s-1; 8L2-6D5 template, not H19-L129 template
Method: as §4, §1

[16] = biological target: T1, human nerve growth factor; test: BIAcore SPR, purified Fab over immobilised human NGF (100 RU); purified Fab 3C, 100 RU NGF on chip
Method: as §4, §5

[17] = biological target: T1, human nerve growth factor; test: BIAcore SPR screen, Fab over immobilised human NGF; remark: listed apart in the source
[18] = biological target: T1, human nerve growth factor; test: BIAcore SPR screen, Fab over immobilised human NGF; KD calculated from koff with kon 4e4 M-1s-1; screening KD calculated from koff with the fixed kon 4e4; paragraph 422 gives about 1 nM

B1: 8L2-4D5 (CDR-grafted antibody, template) (Fab, V domains shown)
VH: QVQLQESGPGLVKPSETLSLTCTVSGFSLIGYDINWIRQPPGKGLEWIGMIWGDGTTDYNSALKSRVTISVDTSKNQFSLKLSSVTAADTAVYYCARGGYYYGTSYYFDYWGQGTLVTVS
VL: DIQMTQSPSSLSASVGDRVTITCRASQDISNHLNWYQQKPGKAPKLLIYYISRFHSGVPSRFSGSGSGTDFTFTISSLQPEDIATYYCQQSKTLPYTFGQGTKLEIKR
Kd [1]: ~38 nM

B2: 8L2-6D5 (CDR-grafted antibody with framework mutation V71K) (Fab, V domains shown)
VH: B1 VH with V71K
VL: B1 VL
notes: Fab (human IgG2 CH1 + C-kappa, His tag at heavy chain C terminus); also called 8L2-6D5 Fab; 8L2-6D5 (control)
IC50, human NGF-dependent survival of mouse E13.5 trigeminal neurons (1.5 pM NGF) [2]: 462 pM | IC50, human NGF-dependent survival of mouse E13.5 trigeminal neurons (15 pM NGF) [2]: 1580 pM | IC50, rat NGF-dependent survival of mouse E13.5 trigeminal neurons (1.5 pM NGF) (rat nerve growth factor [3]): 169 pM | IC50, rat NGF-dependent survival of mouse E13.5 trigeminal neurons (15 pM NGF) (rat nerve growth factor [3]): 730 pM | Kd [1]: ~15 nM | koff [4]: 0.001 s⁻¹ | koff [5]: 0.001 s⁻¹ | koff [6]: 0.001 s⁻¹ | Kd [7]: 25 nM | Kd [8]: 25 nM | Kd [9]: 25 nM

B3: antibody E3 (Fab) (Fab, V domains shown)
VH: B1 VH with I34L, M50I, L63V, V71K, Y101W, G103A
VL: B1 VL with D28S, H32N, I51T, S91E, K92H
notes: Fab with human IgG2 CH1 and human kappa constant domain; His tag at the heavy chain C terminus in the E. coli format; also called Fab E3; 3E Fab
IC50, rat NGF-dependent survival of mouse E13.5 trigeminal neurons (15 pM NGF) (rat nerve growth factor [10]): ~31.6 pM | IC50, human NGF-dependent survival of mouse E13.5 trigeminal neurons (1.5 pM NGF) [2]: < 1.2 pM | IC50, human NGF-dependent survival of mouse E13.5 trigeminal neurons (15 pM NGF) [2]: < 21 pM | IC50, rat NGF-dependent survival of mouse E13.5 trigeminal neurons (1.5 pM NGF) (rat nerve growth factor [3]): < 1.3 pM | IC50, rat NGF-dependent survival of mouse E13.5 trigeminal neurons (15 pM NGF) (rat nerve growth factor [3]): < 8.3 pM | IC50 (read off the curve), NGF-dependent survival of E13.5 mouse trigeminal neurons (0.4 ng/ml human NGF, 48 h) [11]: ~0.02 nM binding sites | fold higher binding affinity than parent mouse antibody 911 [12]: ~50 fold | koff [6]: 1.2e-05 s⁻¹ | Kd [13]: ≤ 0.07 nM | koff [13]: < 4e-05 s⁻¹ | kon [13]: 600000 M⁻¹ s⁻¹ | koff [14]: ~4.2e-05 s⁻¹ | Kd [9]: 0.3 nM

B4: 8L2-6D5 template Fab with L_S91E; L_K92R and H_Y101W; H_G103A (Fab, V domains shown)
VH: B1 VH with V71K, Y101W, G103A
VL: B1 VL with S91E, K92R
notes: See note of m8
koff [6]: 0.0001 s⁻¹ | Kd [15]: 2.5 nM

B5: clone 3C (Fab) (Fab, V domains shown)
VH: B1 VH with I34L, M50I, L63V, V71K, Y101W, G103A
VL: B1 VL with D28S, H32N, I51T, S91E, K92R
notes: same L1, L2, H1, H2 mutations as 3E; See note of m8; also called Fab 3C
IC50, human NGF-dependent survival of mouse E13.5 trigeminal neurons (1.5 pM NGF) [2]: 5.6 pM | IC50, human NGF-dependent survival of mouse E13.5 trigeminal neurons (15 pM NGF) [2]: 80.9 pM | IC50, rat NGF-dependent survival of mouse E13.5 trigeminal neurons (1.5 pM NGF) (rat nerve growth factor [3]): 6 pM | IC50, rat NGF-dependent survival of mouse E13.5 trigeminal neurons (15 pM NGF) (rat nerve growth factor [3]): 31.6 pM | koff [6]: 1.4e-05 s⁻¹ | Kd [16]: ~0.35 nM | koff [16]: ~1.4e-05 s⁻¹ | Kd [9]: 0.35 nM

B6: H19-L129 (combined clone, H1 H2 L1 L2 matured) (Fab, V domains shown)
VH: B1 VH with I34L, M50I, L63V, V71K
VL: B1 VL with D28S, H32N, I51T
notes: See note of m8; also called H19-L129 Fab; Fab H19-L129
IC50, human NGF-dependent survival of mouse E13.5 trigeminal neurons (1.5 pM NGF) [2]: 9.6 pM | IC50, human NGF-dependent survival of mouse E13.5 trigeminal neurons (15 pM NGF) [2]: 60.1 pM | IC50, rat NGF-dependent survival of mouse E13.5 trigeminal neurons (1.5 pM NGF) (rat nerve growth factor [3]): 6 pM | IC50, rat NGF-dependent survival of mouse E13.5 trigeminal neurons (15 pM NGF) (rat nerve growth factor [3]): 31 pM | Kd [1]: ~1 nM | koff [17]: 0.00011 s⁻¹ | koff [6]: 0.00011 s⁻¹ | Kd [18]: ~2.75 nM

B7: H19-L129 template Fab with L_S91E; L_K92S and H_Y101W; H_G103S (Fab, V domains shown)
VH: B1 VH with I34L, M50I, L63V, V71K, Y101W, G103S
VL: B1 VL with D28S, H32N, I51T, S91E, K92S
notes: See note of m8
koff [6]: 4.7e-05 s⁻¹ | Kd [9]: 1.1 nM
